The values that follow come from PMC5698488.

The test addresses BG505 Olio6 trimer (HIV-1 (isolate BG505)). The test is described as follows: SEC-MALS. (In general: Size exclusion chromatography separates by hydrodynamic size, large species first.)

As for BG505 Olio6 trimer (complex), the stoichiometry N (commonly the number of molecules, sites or subunits per partner or assembly) was determined as 3.
